Measurements taken from patent US20220112292A1 (ALETA BIOTHERAPEUTICS, published 2022).

T1: CLL-1 on U937 cells (human, UniProt Q5QGZ9 1-265)
T1 construct: whole, on cells; also called CLEC12A; Clec12A
T1 sequence: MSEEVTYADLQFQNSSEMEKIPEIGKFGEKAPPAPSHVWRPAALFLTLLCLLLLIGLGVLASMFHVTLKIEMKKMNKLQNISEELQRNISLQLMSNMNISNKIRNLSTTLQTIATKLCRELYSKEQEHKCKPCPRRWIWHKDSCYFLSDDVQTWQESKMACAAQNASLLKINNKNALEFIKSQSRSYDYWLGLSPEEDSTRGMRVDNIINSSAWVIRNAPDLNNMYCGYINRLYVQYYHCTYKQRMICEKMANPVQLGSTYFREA

T2: Clec12A-His (Sino Biological, 11896-H07H) (human, UniProt Q5QGZ9 65-265)
T2 construct: Bought soluble protein; also called soluble CLEC12a-His; Sino Biological Clec12A
T2 chain: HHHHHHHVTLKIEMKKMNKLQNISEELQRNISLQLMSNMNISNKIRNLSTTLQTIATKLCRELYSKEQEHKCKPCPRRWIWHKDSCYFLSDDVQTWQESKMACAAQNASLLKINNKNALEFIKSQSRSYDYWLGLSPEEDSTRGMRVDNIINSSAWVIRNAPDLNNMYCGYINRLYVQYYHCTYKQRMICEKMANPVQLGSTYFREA

T3: Clec12A (ABclonal, RP01018) (human, UniProt Q5QGZ9-1 75-275, limits assumed)
T3 construct: Bought recombinant protein; also called ABclonal Clec12A; Clec12A from AbClonal
T3 sequence: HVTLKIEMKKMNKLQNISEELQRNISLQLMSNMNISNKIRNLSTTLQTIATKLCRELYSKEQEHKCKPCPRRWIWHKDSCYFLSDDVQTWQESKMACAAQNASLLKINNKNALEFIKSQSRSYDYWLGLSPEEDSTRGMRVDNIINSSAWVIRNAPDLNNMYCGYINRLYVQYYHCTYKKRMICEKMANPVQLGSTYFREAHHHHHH


Experiments:
CLL-1 on U937 cells [1] = molecular target: T1, CLL-1 on U937 cells; experiment: flow cytometry on U937 cells, % binding against ng/ml, detected with a-His-PE; EC50 of the fitted curve
Protocol: (§1) U937 cell binding by VHH clones was assessed using varying doses to determine EC50s. Briefly, the method included: VHH clones (3 ug/ml as starting conc./test, with 3× serial dilutions) in FACS buffer were added to Fc blocked U937 or 293T-CLL1 cells (2.5×10\hat{ }5), the mixtures were incubated for 30 min at 4° C., then washed twice with FACS buffer by spinning at 500G for 2 min; anti-His-PE was added to cells, the mixture was incubated for 30 min at 4° C. and washed twice with FACS buffer by spinning at 500G for 2 min; 1% PFA (Paraformaldehyde) in PBS was added to cell pellet to fix the cells, followed by FACS analysis. VHH clones tested: 1B5: stock=1.6 mg/ml; 1H1: stock=1.9 mg/ml; 1G6: stock=1.1 mg/ml; 2F3: stock=1.45 mg/ml; 2F5: stock=0.5 mg/ml; 2H3: stock=2 mg/ml.

CLL-1 on U937 cells [2] = molecular target: T1, CLL-1 on U937 cells; experiment: flow cytometry on U937 cells, VHH in 3-fold dilutions, detected with a-His-PE; percent of cells positive
Protocol: as §1

CLL-1 on U937 cells [3] = molecular target: T1, CLL-1 on U937 cells; experiment: flow cytometry on U937 cells, VHH at 3 ug/ml, detected with a-His-PE; a-His-PE alone 1.1% and 5,576.5, unstained 0.6% and 5,793.5
Protocol: U937 cell binding by VHH clones was assessed. Briefly, the method included: U937 cells (2.5×10\hat{ }5) were Fc blocked (human Fc block, BD Cat. #BDB564220) for 10 min at room temperature, then washed once with FACS buffer (PBS+1% BSA+0.1% Sodium Azide) by spinning at 500G for 2 min; VHH clones (3 μg/ml as final conc) in FACS buffer were added to the cell pellets and incubated for 30 min at 4° C., then washed twice with FACS buffer by spinning at 500G for 2 min; anti-His-PE (R&D Systems, Cat. #IC050P) was added to cells; the mixture was incubated for 30 min at 4° C. and washed twice with FACS buffer by spinning at 500G for 2 min; 1% PFA (Paraformaldehyde) in PBS was added to cell pellet to fix the cells, followed by FACS analysis. VHH clones tested: 1B5: stock=1.6 mg/ml; 1H1: stock=1.9 mg/ml; 1G6: stock=1.1 mg/ml; 2F3: stock=1.45 mg/ml; 2F5: stock=0.5 mg/ml; 2H3: stock=2 mg/ml. As shown in FIGS. 2A-2C, binding of clones 1H1, 1G6, 2F5 and 2H3 to U937 cells was detected with anti-His-PE; very little binding of clones 1B5 and 2F3 to U937 cells could be detected by anti-His-PE.

CLL-1 on U937 cells [4] = molecular target: T1, CLL-1 on U937 cells; experiment: flow cytometry on U937 cells, 3x serial dilutions from 3 ug/ml, anti-His-PE
Protocol: as §1

[5] = molecular target: T2, Clec12A-His (Sino Biological, …); experiment: ELISA, lower graph (second experiment): coated with clec12a, then 2H3, anti-myc, HRP-anti-mIgG; OD405
Protocol: (§2) The ability of VHH clones to recognize commercially available recombinant Clec12a proteins was tested by ELISA. […] The plate was blocked with 200 μl/well 0.3% non-fat milk in Tris buffered saline (TBS) for 1 hr at room temperature (RT). Then, the plates were washed 3× with wash buffer (1×TBST: 0.1 M Tris, 0.5 M NaCl, 0.05% Tween 20). Next, 100 μl of the 2H3 VHH-Myc-His (SEQ ID NO: 15, purified by ProSci), was added starting at 5 μg/ml with 3 fold dilutions, and incubated for 1 h at RT. The plate was washed 3× with wash buffer and 100 μl of 1 ug/ml anti-Myc antibody (NOVUS/Fisher, NBP2-37822) was added per well. The plate was incubated for 1 h at RT and then washed 3× with wash buffer. Following the wash step, 100 μl of a 1:2000 dilution of HRP-anti-mIgG (Jackson ImmunoResearch, 115-035-062) was added per well and incubated at RT in the dark for 1 hr. […] This experiment was repeated twice.

CLL-1 on U937 cells [6] = molecular target: T1, CLL-1 on U937 cells; experiment: flow cytometry on U937 cells, clone lysate, anti-cMyc-PE (Table 3 summary)
[7] = molecular target: T2, Clec12A-His (Sino Biological, …); experiment: ELISA, upper graph (first experiment): coated with clec12a, then 2H3, anti-myc, HRP-anti-mIgG; OD405
Protocol: as §2

[8] = molecular target: T3, Clec12A (ABclonal, RP01018); experiment: ELISA: coated with clec12a, then 2H3, anti-myc, HRP-anti-mIgG; OD405
Protocol: as §2

[9] = molecular target: T2, Clec12A-His (Sino Biological, …); experiment: competition ELISA on coated CLEC12a-His, biotinylated VHH against unlabelled VHH
Protocol: ELISAs were used to determine if the VHH clones recognized distinct or similar epitopes. […] The plate was blocked with 0.3% nonfat milk in TBS (200 ul/well) for 1 hr at RT. The plates were washed 3× with 1×TBST (0.1 M Tris, 0.5 M NaCl and 0.05% Tween-20). The test anti-CLEC12a VHHs were added at 10 ug/ml horizontally across the plate, 100 ul per well and incubated for 1 h. Without washing, the test anti-CLEC12a biotinylated VHHs were added at 0.2 ug/ml vertically down the plate, 100 ul per well and incubate for 1 h. After being washed 3× with 1×TBST, HRP-conjugated streptavidin (Pierce #21130) at 1:2000 (100 ul/well) was added, followed by incubation at RT in the dark for 1 hr. For detection, 1-Step Ultra TMB-ELISA reagent (Thermo Fisher #34028) was added at 100 ul per well and read at 450 nm. […] The 1H1 VHH was distinct from these, and 2C2 was intermediate. Results are depicted in FIGS. 7A-7D.

CLL-1 on U937 cells [10] = molecular target: T1, CLL-1 on U937 cells; experiment: flow cytometry on U937 cells, clone at 3ug/ml, a-Myc then a-mIgG-PE; no clone 0.6% and 64,740.2, unstained 0.0% and 4,885.0
Protocol: (§3) Additional VHH clones were assessed for binding to U937. […] Clones tested: 1A10: stock=0.9 mg/ml; 1B1: stock=0.9 mg/ml; […]: stock=1.5 mg/ml; 2C8: stock=0.9 mg/ml; 1D2: stock=0.06 mg/ml. Previous clone as control 2F5: stock=0.5 mg/ml.

CLL-1 on U937 cells [11] = molecular target: T1, CLL-1 on U937 cells; experiment: flow cytometry on U937 cells, a-cMyc then a-msIgG-PE
Protocol: as §3

EC50 (CLL-1 on U937 cells [1])	% binding at 1.4 ng/ml (CLL-1 on U937 cells [2])	% binding at 4.1 ng/ml (CLL-1 on U937 cells [2])	% binding at 12.3 ng/ml (CLL-1 on U937 cells [2])	% binding at 37.0 ng/ml (CLL-1 on U937 cells [2])	% binding at 111.1 ng/ml (CLL-1 on U937 cells [2])	% binding at 333.3 ng/ml (CLL-1 on U937 cells [2])	% binding at 1000 ng/ml (CLL-1 on U937 cells [2])	% binding at 3000 ng/ml (CLL-1 on U937 cells [2])	% of This Plot (R3 PE+) (CLL-1 on U937 cells [3])	Mean FL2-A (R3 gate) (CLL-1 on U937 cells [3])	EC50 (CLL-1 on U937 cells [4])	EC50 [5]	% FACS positive (CLL-1 on U937 cells [6])	EC50 [7]	binding result [8]	binding result [9]	% of This Plot (R3) (CLL-1 on U937 cells [10])	Mean FL2-A (R3 gate) (CLL-1 on U937 cells [10])	binding result (CLL-1 on U937 cells [11])	Binder
0.00547 µg/mL	6.2%	33.5%	70.5%	89%	89.4%	89.9%	90.3%	88.7%	93.8%	8130	0.35 nM	0.0625 µg/mL	94.3%	0.0661 µg/mL	no binding (tested: about 5000 ng/ml)					VHH clone 2H3 (VHH, Includes myc and His tags; also called 2H3 VHH-Myc-His; VHH 2H3) VHH: QVQLQESGGGLVQAGGSLRLSCVASGSIRSINVMGWYRQAPGKQRELVAACASDGNTYYADSVKGRFTISRDNAEKTVYLQMNNLKPDDTAVYYCDANSRGNYYSGQGTQVTVSS
													77.2%			binds				VHH clone 2C2 (VHH, Includes myc and His tags) VHH: QVQLQQSGGGLVQAGGSLTLSCAATGRTIDNGAMAWFRQAPGKQRELVAAINWSGGATFYTDSVKYRFTISRDNVRHTLDLQMTSLKPEDTTIYFCASRRGVDLRRNSYEYDYWGRGTLVTVSS
																	6%	12300	no binding (tested: 3ug/ml)	1C6 (VHH, also called VHH clone 1C6) VHH: QVQLQESGGALVQAGGSLRLSCAASGLTFSNYAMGWFRQAPGKEREFVAAINWSGGTTDYATSVKGRFTISRDNAKNTVYLQLNSLKPEDTAVYYCAASYRLRITVVVTPDEYHYWGQGTLVTVSS
